Test results reported in patent publication US6468532 (Genentech, dated 2002).

How the values were obtained:
Test in all cases: cell-based or functional assay
[1] = molecular target: T1, recombinant human IL-8, (ser-IL-8)72 (human, UniProt P10145 28-99)
T1 sequence (looked up): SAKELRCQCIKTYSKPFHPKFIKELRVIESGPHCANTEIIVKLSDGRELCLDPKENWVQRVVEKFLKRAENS

[2] = molecular target: T2, rabbit IL-8 (rabbit, UniProt P19874 23-101, limits assumed)
T2 sequence (looked up): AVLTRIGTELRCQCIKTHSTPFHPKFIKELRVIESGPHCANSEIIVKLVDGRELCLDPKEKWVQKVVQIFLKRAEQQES

[3] = molecular target: human monomeric IL-8 (human)
[4] = molecular target: T3, rhesus IL-8 (rhesus, UniProt P67813 23-101, limits assumed)
T3 sequence (looked up): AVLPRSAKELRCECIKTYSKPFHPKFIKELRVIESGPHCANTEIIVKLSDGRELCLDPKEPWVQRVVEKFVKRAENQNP

Binder | average IC50, human IL-8 mediated neutrophil chemotaxis [1] | average IC50, IL-8 mediated neutrophil chemotaxis [2] | average IC50, IL-8 mediated neutrophil chemotaxis [3] | IC50, IL-8 mediated neutrophil chemotaxis [4] | IC50, IL-8 mediated PMN chemotaxis [1] | further results
6G4V11N35A F(ab')2 (GCN4 leucine zipper construct) (other) light: DIQMTQSPSSLSASVGDRVTITCRSSQSLVHGIGATYLHWYQQKPGKAPKLLIYKVSNRFSGVPSRFSGSGSGTDFTLTISSLQPEDFATYYCSQSTHVPLTFGQGTKVEIKRTVAAPSVFIFPPSDEQLKSGTASVVCLLNNFYPREAKVQWKVDNALQSGNSQESVTEQDSKDSTYSLSSTLTLSKADYEKHKVYACEVTHQGLSSPVTKSFNRGEC heavy: not shown | 1.5 nM | 4 nM | 1 nM |  |  | 
humanized 6G425 F(ab)-9 (humanized 6G4V11 Fab) (Fab, V domains shown) VH: EVQLVQSGGGLVQPGGSLRLSCAASGYSFSSHYMHWVRQAPGKGLEWVGYIDPSNGETTYNQKFKGRFTLSRDNSKNTAYLQMNSLRAEDTAVYYCARGDYRYNGDWFFDVWGQGTLVTVSS VL: DIQMTQSPSSLSASVGDRVTITCRSSQSLVHGIGNTYLHWYQQKPGKAPKLLIYKVSNRFSGVPSRFSGSGSGTDFTLTISSLQPEDFATYYCSQSTHVPLTFGQGTKVEIKR |  |  |  | ~22 nM |  | IC50, IL-8 mediated neutrophil chemotaxis [3]: ~15 nM
6G4V11N35A Fab' modified with 40 kD linear PEG-maleimide (Fab, V domains shown, 40 kD linear methoxy-PEG-maleimide on the free cysteine in the hinge region) VH: EVQLVQSGGGLVQPGGSLRLSCAASGYSFSSHYMHWVRQAPGKGLEWVGYIDPSNGETTYNQKFKGRFTLSRDNSKNTAYLQMNSLRAEDTAVYYCARGDYRYNGDWFFDVWGQGTLVTVSS VL: DIQMTQSPSSLSASVGDRVTITCRSSQSLVHGIGATYLHWYQQKPGKAPKLLIYKVSNRFSGVPSRFSGSGSGTDFTLTISSLQPEDFATYYCSQSTHVPLTFGQGTKVEIKR |  |  |  |  | 3.7 nM | 
humanized 6G425 F(ab)-8 (Fab, V domains shown) VH: EVQLVESGGGLVQPGGSLRLSCAASGYSFSSHYMHWVKQAPGKGLEWVGYIDPSNGETTYNQKFKGRFTLSRDNSKNTAYLQMNSLRAEDTAVYYCARGDYRYNGDWFFDVWGQGTLVTVSS VL: DIQMTQSPSSLSASVGDRVTITCRSSQSLVHGIGNTYLHWYQQKPGKAPKLLIYKVSNRFSGVPSRFSGSGSGTDFTLTISSLQPEDFATYYCSQSTHVPLTFGQGTKVEIKR |  |  |  | 10 nM |  | IC50, IL-8 mediated neutrophil chemotaxis [1]: 12 nM
full length 6G4V11N35A IgG1 (antibody, V domains shown, not shown: a dimerising Fc or GST) VH: EVQLVQSGGGLVQPGGSLRLSCAASGYSFSSHYMHWVRQAPGKGLEWVGYIDPSNGETTYNQKFKGRFTLSRDNSKNTAYLQMNSLRAEDTAVYYCARGDYRYNGDWFFDVWGQGTLVTVSS VL: DIQMTQSPSSLSASVGDRVTITCRSSQSLVHGIGATYLHWYQQKPGKAPKLLIYKVSNRFSGVPSRFSGSGSGTDFTLTISSLQPEDFATYYCSQSTHVPLTFGQGTKVEIKR |  |  |  |  |  | IC50, IL-8 mediated human neutrophil chemotaxis [1]: 4 nM; IC50, IL-8 mediated human neutrophil chemotaxis [2]: 4 nM
6G4V11N35A Fab (Fab, V domains shown) VH: EVQLVQSGGGLVQPGGSLRLSCAASGYSFSSHYMHWVRQAPGKGLEWVGYIDPSNGETTYNQKFKGRFTLSRDNSKNTAYLQMNSLRAEDTAVYYCARGDYRYNGDWFFDVWGQGTLVTVSS VL: DIQMTQSPSSLSASVGDRVTITCRSSQSLVHGIGATYLHWYQQKPGKAPKLLIYKVSNRFSGVPSRFSGSGSGTDFTLTISSLQPEDFATYYCSQSTHVPLTFGQGTKVEIKR | 2.7 nM | 5 nM | 1 nM |  | 0.8 nM | 
